{
  "source": "patent US10471162B2",
  "about": "“Collagen targeted imaging probes” (priority 2014, dated 2019)",
  "key": {"[1]": {"test_system": "pulmonary fibrosis, C57/BL6 mice (bleomycin or sham)", "conditions": "mouse, in vivo", "experimental": "Pulmonary fibrosis was induced in 7-8-week-old male C57/BL6 mice by transtracheal administration of bleomycin (BM; 2.5 U/kg) in 50 μL of PBS under direct vision using a small cervical incision. Sham animals received only PBS. Animals were placed in a small-animal PET/SPECT/CT scanner (Triumph; TriFoil Imaging), equipped with inhalation anesthesia and heating pad. Each animal was anesthetized with isoflurane (4% for induction, 1-1.5% for maintenance in medical air). After placement of an in-dwelling catheter in the femoral vein for probe administration, mice were positioned in the PET-CT and the probe was given as a bolus as the PET acquisition began. Mice were imaged continuously by PET for 120 minutes. […] Instrument calibration was performed with phantoms containing small known amounts of radioactivity. […] Reconstructed PET/CT data were quantitatively evaluated using AMIDE software package (Loening and Gambhir, 2003). […] The radioactivity concentration within organs was obtained from mean pixel values within the VOI volume and converted to counts per milliliter per minute and then divided by the injected dose (ID) to obtain an imaging VOI-derived percentage of the injected radioactive dose per cubic centimeter of tissue (% ID/cc). […] Instrument calibration was performed with phantoms containing small known amount of radioactivity. […]"}, "[2]": {"test_system": "pulmonary fibrosis, low dose bleomycin, vascular leak model", "conditions": "male, C57Bl/6, mouse, in vivo, iv", "experimental": "Adult male C57Bl/6 mice were administered a single intratracheal dose of low dose bleomycin at 0.1 U/kg (low dose), in a total volume of 50 μl sterile saline. FTY720 was administered intraperitoneally to the mice at 1 mg/kg three times a week. To effect treatment in the low dose bleomycin, vascular leak model, the therapeutic murine antibody 3G9 (alpha-v-beta6 blocking antibody) and 1E6 (matched isotype control antibody) were used. Antibodies were injected into mice intraperitoneally three times week at a concentration of 1 mg/kg. All administrations of FTY720 and antibodies were initiated on day 0, ˜30 minutes before bleomycin challenge and continued throughout the duration of the experiments. Animals were placed in a small-animal PET/SPECT/CT scanner (Triumph; TriFoil Imaging), equipped with inhalation anesthesia and heating pad. […] Instrument calibration was performed with phantoms containing small known amounts of radioactivity. […] Reconstructed PET/CT data were quantitatively evaluated using AMIDE software package (Loening and Gambhir, 2003). […] The radioactivity concentration within organs was obtained from mean pixel values within the VOI volume and converted to counts per milliliter per minute and then divided by the injected dose (ID) to obtain an imaging VOI-derived percentage of the injected radioactive dose per cubic centimeter of tissue (% ID/cc). […]"}},
  "data": [
    {"compound": "CC(C)C[C@H](NC(=O)[C@@H]1CSSC[C@H](NC(=O)[C@H](Cc2c[nH]cn2)NC(=O)[C@H](Cc2c[nH]c3ccccc23)NC(=O)[C@H](CCCCNC(=O)CNC(=O)CCC(C(=O)O)N2CCN(CC(=O)O)CCN(CC(=O)O)CC2)NC(=O)CNC(=O)CCC(C(=O)O)N2CCN(CC(=O)O)CCN(CC(=O)O)CC2)C(=O)N[C@@H]([C@@H](C)O)C(=O)N[C@@H]([C@@H](C)O)C(=O)N[C@@H](CCCCNC(=O)CCC(C(=O)O)N2CCN(CC(=O)O)CCN(CC(=O)O)CC2)C(=O)N[C@@H](Cc2ccccc2)C(=O)N2CCC[C@H]2C(=O)N[C@@H](Cc2c[nH]cn2)C(=O)N[C@@H](Cc2c[nH]cn2)C(=O)N[C@@H](Cc2ccc(O)cc2)C(=O)N1)C(=O)N[C@@H](Cc1ccc(O)cc1)C(=O)N[C@@H](Cc1ccc(-c2ccccc2)cc1)C(N)=O", "note": "(single isomer, unassigned) [CBP8]", "values": [
      {"measurement": "Mean PET activity in heart and muscle, BM-treated vs sham, in words", "setting": "[1]", "result": "not significantly different"},
      {"measurement": "mean lung PET activity", "setting": "[2]", "result": "2.07 ± 0.53", "unit": "% ID/cc"}
    ]}
  ]
}
